Here are results for four substances from publication doi:10.1101/2024.02.20.581179.

Common to all, as to assay: SEC
Background: Size exclusion chromatography separates by hydrodynamic size, large species first.

Experiment [1] addresses GST-tagged A. carterae eIF4E-1a (not stated | Amphidinium carterae).
For experiment [2], the target named is GST-tagged A. carterae eIF4E-1d1 (not stated | Amphidinium carterae).
The target of experiment [3] is GST-tagged A. carterae eIF4E-2a (not stated | Amphidinium carterae).
Experiment [4] deals with GST-tagged mouse eIF4E-1 (not stated | mouse).

For orientation: stoichiometry N means the number of molecules, sites or subunits per partner or assembly. GST-tagged A. carterae eIF4E-1a gave a stoichiometry N in experiment [1] of 2. In experiment [2], GST-tagged A. carterae eIF4E-1d1 came in with a stoichiometry N of 2.

Take GST-tagged A. carterae eIF4E-2a: the stoichiometry N in experiment [3] worked out at 2.

In experiment [4], GST-tagged mouse eIF4E-1 displayed a stoichiometry N of 2.
